Measurements taken from the supplement of paper PMC9112550, “Optimization of the antimicrobial peptide Bac7 by deep mutational scanning” (BMC Biology, 2022).

The sequences below were run on Escherichia coli TOP10 (assay: shrunken log2 fold change of peptide-encoding DNA abundance (4.5 h post-induction vs induction); higher = less antimicrobial activity (less host growth inhibition)). Settings: time post-induction: 4.5 h; library: site-saturation at positions 5, 18, 19, 20.
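Also: peptides expressed intracellularly from a pBAD plasmid library in pooled LB shake-flask culture, induced with 0.3% L-arabinose, DNA abundance read by NGS, three biological replicates, DESeq2 with apeglm shrinkage.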

Sequence | shrunken log2 fold change
RRIRMRPPRLPRPRPRPTFHPRP | -0.00995
RRIRTRPPRLPRPRPRPCWVPRP | -0.42
RRIRKRPPRLPRPRPRPAVLPRP | -0.025
RRIRCRPPRLPRPRPRPIFMPRP | -0.269
RRIRERPPRLPRPRPRPARTPRP | 0.0417
RRIRDRPPRLPRPRPRPRYNPRP | -0.513
RRIRHRPPRLPRPRPRPNTYPRP | -0.742
RRIRLRPPRLPRPRPRPPNSPRP | 0.0409
RRIRKRPPRLPRPRPRPCYDPRP | -0.0387
RRIRQRPPRLPRPRPRPQQQPRP | -0.0448
RRIRLRPPRLPRPRPRPKGVPRP | 0.0368
RRIRCRPPRLPRPRPRPPYVPRP | -0.455
RRIRVRPPRLPRPRPRPKHKPRP | -0.114
RRIRARPPRLPRPRPRPEWQPRP | 0.105
RRIRVRPPRLPRPRPRPILIPRP | -0.413
RRIRKRPPRLPRPRPRPPNSPRP | 0.156
RRIRLRPPRLPRPRPRPGLHPRP | -0.401
RRIRIRPPRLPRPRPRPDRSPRP | -0.364
RRIRSRPPRLPRPRPRPNSYPRP | -0.00251
RRIRVRPPRLPRPRPRPDMCPRP | 0.0884
RRIRPRPPRLPRPRPRPTECPRP | 0.0179
RRIRSRPPRLPRPRPRPNDRPRP | 0.0698
RRIRPRPPRLPRPRPRPRDEPRP | 0.0975
RRIRIRPPRLPRPRPRPYHNPRP | -1.25
RRIRMRPPRLPRPRPRPVGWPRP | 1.37

Sequence | shrunken log2 fold change
RRIRERPPRLPRPRPRPEELPRP | 0.174
RRIRQRPPRLPRPRPRPSGVPRP | -0.141
RRIRKRPPRLPRPRPRPWQMPRP | 0.0764
RRIRSRPPRLPRPRPRPANSPRP | -0.564
RRIRCRPPRLPRPRPRPGSNPRP | -0.915
RRIRHRPPRLPRPRPRPDTHPRP | -1.19
RRIRMRPPRLPRPRPRPVQPPRP | 0.229
RRIRERPPRLPRPRPRPWGSPRP | -0.0459
RRIRKRPPRLPRPRPRPVPAPRP | 0.648
RRIRWRPPRLPRPRPRPTFGPRP | -0.0806
RRIRSRPPRLPRPRPRPKWCPRP | -0.132
RRIRMRPPRLPRPRPRPWNDPRP | -0.112
RRIRYRPPRLPRPRPRPMTTPRP | -0.2
RRIRPRPPRLPRPRPRPKFLPRP | 0.0917
RRIRIRPPRLPRPRPRPEMNPRP | -0.0353
RRIRLRPPRLPRPRPRPHRSPRP | 0.0989
RRIRRRPPRLPRPRPRPLFPPRP | 0.0907
RRIRNRPPRLPRPRPRPQNGPRP | 0.00902
RRIRPRPPRLPRPRPRPWYFPRP | -1.02
RRIRPRPPRLPRPRPRPWYQPRP | -0.0967
RRIRFRPPRLPRPRPRPENHPRP | -0.84
RRIRIRPPRLPRPRPRPWSYPRP | -0.427
RRIRVRPPRLPRPRPRPWAEPRP | -0.0172
RRIRTRPPRLPRPRPRPKRIPRP | 0.0762
RRIRWRPPRLPRPRPRPPKVPRP | 0.136

Sequence | shrunken log2 fold change
RRIRCRPPRLPRPRPRPGADPRP | 0.484
RRIRFRPPRLPRPRPRPNHFPRP | -0.0292
RRIRPRPPRLPRPRPRPKKWPRP | -0.0589
RRIRQRPPRLPRPRPRPDQKPRP | 0.019
RRIRSRPPRLPRPRPRPKGFPRP | 0.158
RRIRMRPPRLPRPRPRPAKKPRP | 0.209
RRIRDRPPRLPRPRPRPTPGPRP | 0.468
RRIRDRPPRLPRPRPRPHPVPRP | -0.0422
RRIRSRPPRLPRPRPRPRVQPRP | -0.25
RRIRFRPPRLPRPRPRPTINPRP | -0.508
RRIRVRPPRLPRPRPRPGFGPRP | 0.408
RRIRERPPRLPRPRPRPRWEPRP | 0.0891
RRIRPRPPRLPRPRPRPSMWPRP | -0.252
RRIRLRPPRLPRPRPRPCMGPRP | -0.085
RRIRRRPPRLPRPRPRPGWSPRP | 0.472
RRIRNRPPRLPRPRPRPHPPPRP | 0.304
RRIRGRPPRLPRPRPRPPCHPRP | 0.429
RRIRYRPPRLPRPRPRPLANPRP | -0.371
RRIRHRPPRLPRPRPRPAQGPRP | -0.197
RRIRCRPPRLPRPRPRPQNPPRP | -0.144
RRIRERPPRLPRPRPRPKIGPRP | -0.0947
RRIRLRPPRLPRPRPRPMTNPRP | -0.0811
RRIRGRPPRLPRPRPRPSNWPRP | 1.12
RRIRCRPPRLPRPRPRPHLWPRP | 0.129
RRIRARPPRLPRPRPRPSKRPRP | 0.0155

Sequence | shrunken log2 fold change
RRIRFRPPRLPRPRPRPVVSPRP | 0.0235
RRIRCRPPRLPRPRPRPQHSPRP | -0.764
RRIRCRPPRLPRPRPRPNGDPRP | 0.105
RRIRIRPPRLPRPRPRPAERPRP | 0.0773
RRIRLRPPRLPRPRPRPFERPRP | 0.198
RRIRMRPPRLPRPRPRPEMIPRP | 2.2
RRIRHRPPRLPRPRPRPTTNPRP | -0.348
RRIRVRPPRLPRPRPRPWPIPRP | -0.0661
RRIRPRPPRLPRPRPRPTPDPRP | 0.356
RRIRSRPPRLPRPRPRPHPWPRP | -0.0172
RRIRTRPPRLPRPRPRPCEVPRP | 0.0427
RRIRFRPPRLPRPRPRPLQSPRP | 0.11
RRIRARPPRLPRPRPRPLAQPRP | 0.578
RRIRKRPPRLPRPRPRPMHQPRP | 0.003
RRIRNRPPRLPRPRPRPRDIPRP | -0.138
RRIRVRPPRLPRPRPRPMYAPRP | -0.17
RRIRERPPRLPRPRPRPNHFPRP | -0.799
RRIRGRPPRLPRPRPRPFATPRP | 2.68
RRIRSRPPRLPRPRPRPHCVPRP | -0.0724
RRIRARPPRLPRPRPRPTTTPRP | 0.264
RRIRVRPPRLPRPRPRPRRNPRP | 0.108
RRIRKRPPRLPRPRPRPIPSPRP | 0.422
RRIRIRPPRLPRPRPRPCHPPRP | -0.447
RRIRLRPPRLPRPRPRPFFWPRP | 0.296
RRIRGRPPRLPRPRPRPCYVPRP | -0.0858

Sequence | shrunken log2 fold change
RRIRRRPPRLPRPRPRPEGYPRP | 0.202
RRIRSRPPRLPRPRPRPDHDPRP | -0.357
RRIRNRPPRLPRPRPRPAVWPRP | 0.583
RRIRGRPPRLPRPRPRPDHLPRP | 0.117
RRIRFRPPRLPRPRPRPGSWPRP | 0.244
RRIRPRPPRLPRPRPRPEWTPRP | 0.22
RRIRARPPRLPRPRPRPVLTPRP | 0.384
RRIRIRPPRLPRPRPRPQLSPRP | -0.565
RRIRKRPPRLPRPRPRPCVGPRP | 0.334
RRIRWRPPRLPRPRPRPLRMPRP | 0.531
RRIRHRPPRLPRPRPRPSQWPRP | -0.451
RRIRARPPRLPRPRPRPLRAPRP | 1.19
RRIRIRPPRLPRPRPRPVTGPRP | -0.37
RRIRERPPRLPRPRPRPLKHPRP | -0.425
RRIRWRPPRLPRPRPRPYPLPRP | -0.0066
RRIRGRPPRLPRPRPRPLIRPRP | 0.0808
RRIRLRPPRLPRPRPRPGKCPRP | -0.073
RRIRNRPPRLPRPRPRPDCTPRP | 0.0531
RRIRERPPRLPRPRPRPENFPRP | -0.195
RRIRYRPPRLPRPRPRPPTWPRP | -0.0624
RRIRARPPRLPRPRPRPFPEPRP | 0.319
RRIRKRPPRLPRPRPRPVHMPRP | -0.0183
RRIRARPPRLPRPRPRPDCCPRP | 0.172
RRIRHRPPRLPRPRPRPGQPPRP | 0.0384
RRIRSRPPRLPRPRPRPYQVPRP | -0.0683

Sequence | shrunken log2 fold change
RRIRYRPPRLPRPRPRPRHEPRP | -0.802
RRIRARPPRLPRPRPRPWHDPRP | -0.00134
RRIRIRPPRLPRPRPRPEIVPRP | -0.255
RRIRMRPPRLPRPRPRPWWHPRP | 0.158
RRIRWRPPRLPRPRPRPGNSPRP | -0.22
RRIRQRPPRLPRPRPRPITSPRP | -0.0775
RRIRYRPPRLPRPRPRPTWCPRP | -0.544
RRIRFRPPRLPRPRPRPRRPPRP | 0.668
RRIRLRPPRLPRPRPRPCLCPRP | -0.0557
RRIRCRPPRLPRPRPRPPEEPRP | 0.301
RRIRNRPPRLPRPRPRPMMAPRP | -0.106
RRIRPRPPRLPRPRPRPPTPPRP | 0.417
RRIRERPPRLPRPRPRPWVGPRP | 0.0249
RRIRMRPPRLPRPRPRPQQVPRP | 0.00763
RRIRPRPPRLPRPRPRPIQEPRP | -0.019
RRIRNRPPRLPRPRPRPHEPPRP | 0.247
RRIRGRPPRLPRPRPRPMLYPRP | 0.322
RRIRIRPPRLPRPRPRPHCMPRP | -0.697
RRIRFRPPRLPRPRPRPRKTPRP | 0.0798
RRIRVRPPRLPRPRPRPWNQPRP | 0.0232
RRIRMRPPRLPRPRPRPAVIPRP | -0.1
RRIRCRPPRLPRPRPRPHESPRP | -0.123
RRIRWRPPRLPRPRPRPPEAPRP | 0.428
RRIRLRPPRLPRPRPRPQPDPRP | -0.161
RRIRSRPPRLPRPRPRPNVYPRP | -0.257
